Results from paper PMC12102759 (2025).

B1: NOTCH4 peptide 1606-1621 (Neurogenic locus notch homolog protein 4), 16-mer library wild type / NSP9 (ORF1ab Nsp9, residues 4141-4253) (parent complex)
chain 1: QGAWLGAPEPWEPLLD
chain 2: NNELSPVALRQMSCAAGTTQTACTDDNALAYYNTTKGGRFVLALLSDLQDLKWARFPKSDGTGTIYTELEPPCRFVTDTPKGPKVKYLYFIKGLNNLNRGMVLGSLAATVRLQ

Variants of: B1
Assay: bait immobilised on MaxiSorp plates (10 µg), library pre-cleared on GST, 2 h binding at 4 °C, five washes; one round per day, days 1-4; value from days 2 and 3

Row | Variant | screen value
1 | chain 1 QGAWLGAPEPWSPLLD [chain 1 E12S] | 0.00302 average fractional NGS count over selection days 2 and 3 (reads of this peptide / all reads for the bait, averaged over …
2 | chain 1 QGAWLGAPEPWEPHLD [chain 1 L14H] | 0.000429 average fractional NGS count over selection days 2 and 3 (reads of this peptide / all reads for the bait, averaged over …
3 | chain 1 QGAWLGAPEPWEPLAD [chain 1 L15A] | 0.00794 average fractional NGS count over selection days 2 and 3 (reads of this peptide / all reads for the bait, averaged over …
4 | chain 1 QGAWLGAPEPWEMLLD [chain 1 P13M] | 0.00222 average fractional NGS count over selection days 2 and 3 (reads of this peptide / all reads for the bait, averaged over …
5 | chain 1 QGAWLGAAEPWEPLLD [chain 1 P8A] | 0.000677 average fractional NGS count over selection days 2 and 3 (reads of this peptide / all reads for the bait, averaged over …
6 | chain 1 QGAWLGVPEPWEPLLD [chain 1 A7V] | 0.00673 average fractional NGS count over selection days 2 and 3 (reads of this peptide / all reads for the bait, averaged over …
7 | chain 1 QGAWLGAPEPWEPLKD [chain 1 L15K] | 0.00133 average fractional NGS count over selection days 2 and 3 (reads of this peptide / all reads for the bait, averaged over …
8 | chain 1 QGIWLGAPEPWEPLLD [chain 1 A3I] | 0.00198 average fractional NGS count over selection days 2 and 3 (reads of this peptide / all reads for the bait, averaged over …
9 | chain 1 QGTWLGAPEPWEPLLD [chain 1 A3T] | 0.00113 average fractional NGS count over selection days 2 and 3 (reads of this peptide / all reads for the bait, averaged over …
10 | chain 1 QGAWLGAPNPWEPLLD [chain 1 E9N] | 0.000953 average fractional NGS count over selection days 2 and 3 (reads of this peptide / all reads for the bait, averaged over …
11 | chain 1 QGAWLDAPEPWEPLLD [chain 1 G6D] | 0.000544 average fractional NGS count over selection days 2 and 3 (reads of this peptide / all reads for the bait, averaged over …
12 | chain 1 QGAWLGAPEPWEPLHD [chain 1 L15H] | 0.00012 average fractional NGS count over selection days 2 and 3 (reads of this peptide / all reads for the bait, averaged over …
13 | chain 1 QGAWLGAPEPWEPFLD [chain 1 L14F] | 0.00284 average fractional NGS count over selection days 2 and 3 (reads of this peptide / all reads for the bait, averaged over …
14 | chain 1 WGAWLGAPEPWEPLLD [chain 1 Q1W] | 0.000692 average fractional NGS count over selection days 2 and 3 (reads of this peptide / all reads for the bait, averaged over …
15 | chain 1 QGAWLGAQEPWEPLLD [chain 1 P8Q] | 0.000198 average fractional NGS count over selection days 2 and 3 (reads of this peptide / all reads for the bait, averaged over …
16 | chain 1 QGAWLGAPEPWDPLLD [chain 1 E12D] | 0.000215 average fractional NGS count over selection days 2 and 3 (reads of this peptide / all reads for the bait, averaged over …
17 | chain 1 MGAWLGAPEPWEPLLD [chain 1 Q1M] | 0.00503 average fractional NGS count over selection days 2 and 3 (reads of this peptide / all reads for the bait, averaged over …
18 | chain 1 QGAWLGWPEPWEPLLD [chain 1 A7W] | 0.000255 average fractional NGS count over selection days 2 and 3 (reads of this peptide / all reads for the bait, averaged over …
19 | chain 1 QGAWLGAPEIWEPLLD [chain 1 P10I] | 0.00391 average fractional NGS count over selection days 2 and 3 (reads of this peptide / all reads for the bait, averaged over …

Row | Variant | screen value
20 | chain 1 QGAWLGAHEPWEPLLD [chain 1 P8H] | 0.00106 average fractional NGS count over selection days 2 and 3 (reads of this peptide / all reads for the bait, averaged over …
21 | chain 1 QGAWLGAPEPWEPLVD [chain 1 L15V] | 0.00299 average fractional NGS count over selection days 2 and 3 (reads of this peptide / all reads for the bait, averaged over …
22 | chain 1 QGAWLGAPEPWEPPLD [chain 1 L14P] | 0.000127 average fractional NGS count over selection days 2 and 3 (reads of this peptide / all reads for the bait, averaged over …
23 | chain 1 QGAWLGAPEPWPPLLD [chain 1 E12P] | 0.00101 average fractional NGS count over selection days 2 and 3 (reads of this peptide / all reads for the bait, averaged over …
24 | chain 1 QGAWLGAPEPWEPWLD [chain 1 L14W] | 0.000273 average fractional NGS count over selection days 2 and 3 (reads of this peptide / all reads for the bait, averaged over …
25 | chain 1 QGAWLGLPEPWEPLLD [chain 1 A7L] | 0.000927 average fractional NGS count over selection days 2 and 3 (reads of this peptide / all reads for the bait, averaged over …
26 | chain 1 NGAWLGAPEPWEPLLD [chain 1 Q1N] | 0.00294 average fractional NGS count over selection days 2 and 3 (reads of this peptide / all reads for the bait, averaged over …
27 | chain 1 QGAWLGAREPWEPLLD [chain 1 P8R] | 8.2e-05 average fractional NGS count over selection days 2 and 3 (reads of this peptide / all reads for the bait, averaged over …
28 | chain 1 QGAWLGAPEPWERLLD [chain 1 P13R] | 0.00106 average fractional NGS count over selection days 2 and 3 (reads of this peptide / all reads for the bait, averaged over …
29 | chain 1 QGAWLGAPPPWEPLLD [chain 1 E9P] | 0.00127 average fractional NGS count over selection days 2 and 3 (reads of this peptide / all reads for the bait, averaged over …
30 | chain 1 QGAWLGAPEDWEPLLD [chain 1 P10D] | 0.00968 average fractional NGS count over selection days 2 and 3 (reads of this peptide / all reads for the bait, averaged over …
31 | chain 1 QGAWLGAPEVWEPLLD [chain 1 P10V] | 0.00245 average fractional NGS count over selection days 2 and 3 (reads of this peptide / all reads for the bait, averaged over …
32 | chain 1 QGAWLGAPEQWEPLLD [chain 1 P10Q] | 0.000676 average fractional NGS count over selection days 2 and 3 (reads of this peptide / all reads for the bait, averaged over …
33 | chain 1 QGAWLGAGEPWEPLLD [chain 1 P8G] | 0.000266 average fractional NGS count over selection days 2 and 3 (reads of this peptide / all reads for the bait, averaged over …
34 | chain 1 DGAWLGAPEPWEPLLD [chain 1 Q1D] | 0.000709 average fractional NGS count over selection days 2 and 3 (reads of this peptide / all reads for the bait, averaged over …
35 | chain 1 QGAWLGALEPWEPLLD [chain 1 P8L] | 0.000953 average fractional NGS count over selection days 2 and 3 (reads of this peptide / all reads for the bait, averaged over …
36 | chain 1 QGAWLGAPEPVEPLLD [chain 1 W11V] | 0.000951 average fractional NGS count over selection days 2 and 3 (reads of this peptide / all reads for the bait, averaged over …
37 | chain 1 QGAWLGAPEPWEFLLD [chain 1 P13F] | 0.0013 average fractional NGS count over selection days 2 and 3 (reads of this peptide / all reads for the bait, averaged over …
38 | chain 1 QGAWLGYPEPWEPLLD [chain 1 A7Y] | 0.000616 average fractional NGS count over selection days 2 and 3 (reads of this peptide / all reads for the bait, averaged over …

Row | Variant | screen value
39 | chain 1 QGAWLGAPEEWEPLLD [chain 1 P10E] | 0.00264 average fractional NGS count over selection days 2 and 3 (reads of this peptide / all reads for the bait, averaged over …
40 | chain 1 QGAWLGAPEPWIPLLD [chain 1 E12I] | 0.000686 average fractional NGS count over selection days 2 and 3 (reads of this peptide / all reads for the bait, averaged over …
41 | chain 1 FGAWLGAPEPWEPLLD [chain 1 Q1F] | 0.000338 average fractional NGS count over selection days 2 and 3 (reads of this peptide / all reads for the bait, averaged over …
42 | chain 1 QGAWLGPPEPWEPLLD [chain 1 A7P] | 0.000551 average fractional NGS count over selection days 2 and 3 (reads of this peptide / all reads for the bait, averaged over …
43 | chain 1 QGAWLGAPEPWENLLD [chain 1 P13N] | 0.000298 average fractional NGS count over selection days 2 and 3 (reads of this peptide / all reads for the bait, averaged over …
44 | chain 1 QGAWLGAPEPAEPLLD [chain 1 W11A] | 0.00423 average fractional NGS count over selection days 2 and 3 (reads of this peptide / all reads for the bait, averaged over …
45 | chain 1 QGAWLGAPEAWEPLLD [chain 1 P10A] | 0.000635 average fractional NGS count over selection days 2 and 3 (reads of this peptide / all reads for the bait, averaged over …
46 | chain 1 QGAWLGANEPWEPLLD [chain 1 P8N] | 0.000215 average fractional NGS count over selection days 2 and 3 (reads of this peptide / all reads for the bait, averaged over …
47 | chain 1 QGAWLGAPEPQEPLLD [chain 1 W11Q] | 0.00182 average fractional NGS count over selection days 2 and 3 (reads of this peptide / all reads for the bait, averaged over …
48 | chain 1 QGAWLGAPEGWEPLLD [chain 1 P10G] | 0.000535 average fractional NGS count over selection days 2 and 3 (reads of this peptide / all reads for the bait, averaged over …
49 | chain 1 QGWWLGAPEPWEPLLD [chain 1 A3W] | 0.000101 average fractional NGS count over selection days 2 and 3 (reads of this peptide / all reads for the bait, averaged over …
50 | chain 1 QGQWLGAPEPWEPLLD [chain 1 A3Q] | 0.000713 average fractional NGS count over selection days 2 and 3 (reads of this peptide / all reads for the bait, averaged over …
51 | chain 1 QGAWLGAPEPWEPLND [chain 1 L15N] | 0.00024 average fractional NGS count over selection days 2 and 3 (reads of this peptide / all reads for the bait, averaged over …
52 | chain 1 QGAWLGTPEPWEPLLD [chain 1 A7T] | 0.00295 average fractional NGS count over selection days 2 and 3 (reads of this peptide / all reads for the bait, averaged over …
53 | chain 1 QGAWLGSPEPWEPLLD [chain 1 A7S] | 0.00083 average fractional NGS count over selection days 2 and 3 (reads of this peptide / all reads for the bait, averaged over …
54 | chain 1 QGAWLGAPEPPEPLLD [chain 1 W11P] | 0.0013 average fractional NGS count over selection days 2 and 3 (reads of this peptide / all reads for the bait, averaged over …
55 | chain 1 QGAWLGAPQPWEPLLD [chain 1 E9Q] | 0.000696 average fractional NGS count over selection days 2 and 3 (reads of this peptide / all reads for the bait, averaged over …
56 | chain 1 QGAWLGAPEPWEPLTD [chain 1 L15T] | 0.00153 average fractional NGS count over selection days 2 and 3 (reads of this peptide / all reads for the bait, averaged over …
